Data published in patent publication US20030215854, “Detection of DNA-binding proteins” (published 2003).

Columns and labels:
NF-kB p50 [1] = molecular target: T1, NF-kB p50 (UniProt P19838 P19838:1-433); experiment: bead capture with anti-p50 antibody, Luminex; dose dependent; 10 mM Tris pH 7.5, 50 mM NaCl, 2 mM KCl, 2 mM MgCl2, poly dI-dC, room temperature; settings: tags: Promega E3770; chain copies: 2; duplex with single-stranded 3' tag
Protocol: P04 Kbfor and KBrev were annealed by first diluting 100 uM oligonucleotide stocks into annealing buffer (40 mM Tris pH 7.5, 100 mM NaCl, and 1 mM EDTA), to give a ratio of 20 nM P04 Kbfor: 1 uM KBrev. 100 ul of the oligonucleotide mix was then heated to 95° C. for 1 minute, and cooled linearly to room temperature over a period of 45 minutes. 1 ul of the annealed mixture containing detection duplexes displaying a single stranded tag sequence was added to 19 ul of transcription factor binding buffer (10 mM tris pH 7.5, 50 mM NaCl, 2 mM KCl, 2 mM MgCl2) containing 250 ng poly dI-dC, and 0.5% bovine serum albumin (fraction V) and incubated with varying amounts of NF-kB P50 protein for 15 minutes at room temperature. 1800 beads suspended in 25 ul of transcription factor binding buffer containing 0.35% BSA was added to appropriate reactions and incubated 30 minutes at room temperature. Following the hybridization of DNA binding protein-detection duplex complexes to bead surfaces, 25 ul of transcription factor binding buffer containing (0.1 ug) of NF-kB P50 specific primary antibody (Santa Cruz Biotechnolgy Cat #SC-114) was added to the detection duplex-sample-bead mix and incubated for 20 minutes at room temperature in the dark while shaking. […] 25 ul of each assay were read using the Luminex 100 instrumentation.

NF-kB p50 [2] = molecular target: T1, NF-kB p50; experiment: protection from lambda exonuclease, signal approx 3600 fluorescent units with p50; poly dI-dC; settings: tags: Promega E3770; chain copies: 2; label: 3' biotin on KBrev; duplex with single-stranded 3' tag

T1 sequence (P19838 1-433, one chain of several): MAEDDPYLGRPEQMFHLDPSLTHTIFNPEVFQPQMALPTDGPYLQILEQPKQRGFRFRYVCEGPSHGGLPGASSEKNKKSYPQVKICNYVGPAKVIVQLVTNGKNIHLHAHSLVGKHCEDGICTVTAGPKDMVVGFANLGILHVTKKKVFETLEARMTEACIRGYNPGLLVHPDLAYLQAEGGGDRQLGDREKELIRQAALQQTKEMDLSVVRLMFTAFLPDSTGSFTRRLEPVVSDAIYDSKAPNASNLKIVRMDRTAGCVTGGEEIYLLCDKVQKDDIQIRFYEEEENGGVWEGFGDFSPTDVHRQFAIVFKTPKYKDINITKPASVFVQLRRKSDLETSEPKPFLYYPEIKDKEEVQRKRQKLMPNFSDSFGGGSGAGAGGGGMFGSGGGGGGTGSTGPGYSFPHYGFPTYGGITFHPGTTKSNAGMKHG

| Binder | binding result (NF-kB p50 [1]) | binding result (NF-kB p50 [2]) |
| --- | --- | --- |
| PO4 Kbfor/KBrev (dsDNA, 5' phosphate on Kbfor) DNA 1: AGTTGAGGGGATCCCCAGGAGCGGCTTATCGGTCTATTCAACTCCCCTAGGGG DNA 2: TCCTGGGGATCCCCTCAACT | binds | – |
| PO4 Kbfor/biotinKBrev (dsDNA, 5' phosphate on Kbfor) DNA 1: AGTTGAGGGGATCCCCAGGAGCGGCTTATCGGTCTATTCAACTCCCCTAGGGG DNA 2: TCCTGGGGATCCCCTCAACT | – | binds |
